The source of these data is IntAct's records for PubMed 21718540.

B1: TGF-beta receptor type-1 (Mus musculus), Q64729 (parent)
chain: MEAAAAAPRRPQLLIVLVAAATLLPGAKALQCFCHLCTKDNFTCETDGLCFVSVTETTDKVIHNSMCIAEIDLIPRDRPFVCAPSSKTGAVTTTYCCNQDHCNKIELPTTGPFSEKQSAGLGPVELAAVIAGPVCFVCIALMLMVYICHNRTVIHHRVPNEEDPSLDRPFISEGTTLKDLIYDMTTSGSGSGLPLLVQRTIARTIVLQESIGKGRFGEVWRGKWRGEEVAVKIFSSREERSWFREAEIYQTVMLRHENILGFIAADNKDNGTWTQLWLVSDYHEHGSLFDYLNRYTVTVEGMIKLALSTASGLAHLHMEIVGTQGKPAIAHRDLKSKNILVKKNGTCCIADLGLAVRHDSATDTIDIAPNHRVGTKRYMAPEVLDDSINMKHFESFKRADIYAMGLVFWEIARRCSIGGIHEDYQLPYYDLVPSDPSVEEMRKVVCEQKLRPNIPNRWQSCEALRVMAKIMRECWYANGAARLTALRIKKTLSQLSQQEGIKM
partner: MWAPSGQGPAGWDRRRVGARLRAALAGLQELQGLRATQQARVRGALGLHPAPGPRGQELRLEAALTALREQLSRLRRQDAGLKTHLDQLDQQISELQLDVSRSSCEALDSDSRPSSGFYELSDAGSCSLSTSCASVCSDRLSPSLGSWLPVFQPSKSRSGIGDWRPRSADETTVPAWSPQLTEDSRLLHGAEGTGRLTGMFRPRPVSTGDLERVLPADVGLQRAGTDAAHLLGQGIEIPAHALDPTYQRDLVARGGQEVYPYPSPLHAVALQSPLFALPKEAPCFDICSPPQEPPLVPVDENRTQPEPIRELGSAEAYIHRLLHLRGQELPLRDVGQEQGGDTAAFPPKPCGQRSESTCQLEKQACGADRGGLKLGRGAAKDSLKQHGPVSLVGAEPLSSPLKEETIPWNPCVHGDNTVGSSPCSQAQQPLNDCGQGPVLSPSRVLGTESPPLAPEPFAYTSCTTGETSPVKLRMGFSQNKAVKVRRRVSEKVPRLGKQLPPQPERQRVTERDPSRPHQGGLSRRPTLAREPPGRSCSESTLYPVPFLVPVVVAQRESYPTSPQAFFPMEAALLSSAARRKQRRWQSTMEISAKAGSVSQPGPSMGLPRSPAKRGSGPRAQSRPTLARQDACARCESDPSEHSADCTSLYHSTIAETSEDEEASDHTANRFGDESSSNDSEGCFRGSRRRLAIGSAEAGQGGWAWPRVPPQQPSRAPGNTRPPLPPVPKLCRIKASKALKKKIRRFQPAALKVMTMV

In the assay the parent is B1. The conditions noted are these: with dact2_mouse Dact2, Q7TN08.
Take T204D: the “effect of a mutation on the interaction” value is given as “decreasing interaction”.
